The results in this text go back to patent US7759459B2, “Fluorescent assays for protein kinases” (Albert Einstein College of Medicine of Yeshiva University, priority 2003, dated 2010).

Broadly, the Km is the concentration of substrate that gives half-maximal velocity. Usually kcat stands for the maximal rate divided by the concentration of active sites. One may read the kcat/Km as the second-order rate constant that governs catalysis at low substrate concentration.

For data set [1], the system named is T1, N=C(N)NCCC[C@H](NC(=O)[C@H](CCCNC(=N)N)NC(=O)[C@H](CCCNC(=N)N)NC(=O)[C@H](CCCNC(=N)N)NC(=O)[C@H](Cc1ccccc1)NC(=O)[C@H](CO)Nc1ccc([N+](=O)[O-])c2nonc12)C(=O)N[C@@H](CCCCN)C(N)=O.
T1 construct: purchased Panvera
The data set is described as follows: Radioactive PKC assay ([γ-32P]ATP). The format is biochemical, human. The note with it: other: PKCγ, 30.0 °C. The protocol:
Radioactive PKC Assay—Radioactive assays were performed in duplicate at 30° C. The final assay volume totaled 40 μl and contained 62.5 mM HEPES (pH 7.4), 0.75 mM CaCl2, 12.5 mM MgCl2, 1 mM dithiothreitol, 0.5 mM EGTA, 7.5 μg/mL phosphatidylserine, 1.6 μg/mL diacylglycerol, and 10 ng of PKC. […] Phosphorylation reactions were initiated by the addition of 10 μL of PKC from a stock solution (20 mM Tris-HCl at pH 7.5, 1 mM dithiothreitol, 1 mM EDTA, and 0.75 mg/mL bovine serum albumin) into 30 μL of assay buffer containing peptide substrate. Reactions were terminated after 5 min by spotting 25 μL aliquots onto phosphocellulose paper disks (2.1 cm in diameter). After 10 s, the disks were immersed in 10% glacial acetic acid and soaked with occasional stirring for at least 1 h. The acetic acid was decanted and the disks were collectively washed with four volumes of 0.5% H3PO4, 1 volume of water, followed by a final acetone rinse. The disks were air dried and then counted in a Beckman LS scintillation counter.

Data set [2] has the same test system. Description: Fluorescent PKC assay (spectrofluorimetry). The note with it: other: PKCγ; Fluorescence; pH 7.4; 30.0 °C. The format is biochemical, human. The protocol:
Fluorescent PKC assay-Fluorescence assays were performed in triplicate at 30° C. and initiated by addition of ATP to a 100 μL cuvette containing a 50 μL solution of PKC and peptide substrate 2. Final conditions: 62.5 mM HEPES pH 7.4, 3 mM MgCl2, 0.3 mM CaCl2, 0.1 mM EGTA, 1 mM DTT, 0.5 μg/mL phosphatidylserine, 0.1 μg/mL diacylglycerol, 1 mM ATP, and 13 nM PKC. After the addition of ATP, the solution was gently mixed and the time-dependent change in fluorescent intensity (excitation: 520 nm, emission: […]) continuously monitored with a Photon Technology QM-1 spectrofluorimeter.

PKCγ (Homo sapiens): in data set [1], the Km worked out at 5.0 ± 1.0 µM, the kcat is 3.5 ± 0.333 s⁻¹ and the kcat/Km was determined as 700000 ± 150000 M⁻¹ s⁻¹. Moreover, in data set [2], the Michaelis constant (Km) turned out to be 30 ± 5 µM, the kcat came out at 3.17 ± 0.667 s⁻¹ and the kcat/Km was determined as 105000 ± 28300 M⁻¹ s⁻¹.
